This note sets out measurements from PMC11662680.

Where a chain is given by its changes, count along the chain named. Read-outs that look alike come from different tables or passages of the source.

Series [1] concerns the target CapW from Rhizobium leguminosarum (Rhizobium leguminosarum). Description: crystal structure.
The target in a further series is T1, Ec CapW WT (Escherichia coli upec-117, UniProt P0DX76 1-299).
T1 sequence: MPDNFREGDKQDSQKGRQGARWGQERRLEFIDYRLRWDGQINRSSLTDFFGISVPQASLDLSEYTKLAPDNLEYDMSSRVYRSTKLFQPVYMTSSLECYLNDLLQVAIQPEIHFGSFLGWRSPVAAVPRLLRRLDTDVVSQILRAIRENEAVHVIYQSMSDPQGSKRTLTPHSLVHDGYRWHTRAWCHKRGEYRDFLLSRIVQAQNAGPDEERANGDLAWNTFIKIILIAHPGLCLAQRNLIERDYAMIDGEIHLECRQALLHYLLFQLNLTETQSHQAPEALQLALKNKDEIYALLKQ
The series can be described thus: fluorescence polarization. (In general: Fluorescence polarisation rises when a labelled molecule tumbles more slowly, as on binding a larger partner.)

Series [2] deals with T2, Ec CapW R200A (Escherichia coli upec-117, UniProt P0DX76 1-299, R200A).
T2 sequence: T1 sequence with R200A
Description: fluorescence polarization.

The target of series [3] is T3, Ec CapW S158E (Escherichia coli upec-117, UniProt P0DX76 1-299, S158E).
T3 sequence: T1 sequence with S158E
The series can be described thus: fluorescence polarization.

The target in series [4] is T2, Ec CapW R200A. Description: fluorescence polarization. This is another data set of the same source.
The target in series [5] is T3, Ec CapW S158E. Description: fluorescence polarization. This is another data set of the same source.
A further series has as its target T4, Rl CapW WT (Rhizobium leguminosarum, UniProt PDB:9C5G_1 1-299).
T4 sequence: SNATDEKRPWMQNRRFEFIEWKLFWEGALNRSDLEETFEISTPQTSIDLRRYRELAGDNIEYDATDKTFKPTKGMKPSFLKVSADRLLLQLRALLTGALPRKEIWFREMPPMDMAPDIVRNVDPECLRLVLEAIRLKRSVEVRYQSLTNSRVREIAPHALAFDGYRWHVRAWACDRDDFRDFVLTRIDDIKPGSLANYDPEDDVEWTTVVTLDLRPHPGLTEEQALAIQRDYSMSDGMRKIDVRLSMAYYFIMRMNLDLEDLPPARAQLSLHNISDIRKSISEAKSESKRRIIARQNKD
Description: X-ray crystallography.

In the case of “CapW from Rhizobium leguminosarum (natural protein)”, the stoichiometry N (usually a count of units in the complex or per binding partner) in series [1] is 2.

Consider AAAAAAA (ssDNA) [7mer poly-A], for which, in the series with Ec CapW WT, the binding result is recorded as “no binding”.

B1: CapW 30 bp palindromic binding site (dsDNA)
DNA 1: TAAAAACTGATCGTATAATAATGCTACGCT
DNA 2: AGCGTAGCATTATTATACGATCAGTTTTTA
On to B1, for which the binding result with Ec CapW R200A [2] and with Ec CapW S158E [3] was “binds” each time.

As for UUUUUUU (ssRNA) [7mer poly-U RNA], in the series with Ec CapW WT, the binding result is reported as “no binding”.

TTTTTTT (ssDNA) [7mer poly-T, FAM]: the binding result with Ec CapW R200A [4] and with Ec CapW S158E [5] was “no binding” each time.

Take TTTTTTT (ssDNA) [7mer poly-T, unlabeled]: in the series with Rl CapW WT, the binding result was “binds”.
